# Patent US20220204609A1
# B1: CLDMix-CA818-IgG1 (antibody, V domains shown)
# VH: GAATAVGRRTVEASETLSLTCAVYGGSFSGYYWSWIRQPPGKGLEWIGEINHSGSTNYNPSLKSRVTISVDTSKNQFSLKLSSVTAADTAVYYCARGPYDILTGYYPYWYFDLWGRGTLVTVSS
# VL: DIVMTQSPSTLSASVGDRVTITCRASQGIRNDLGWYQQKPGKAPKLLIYDASSLQSGVPSRFSGSGYGTDFTLTISSLQPEDFATYYCLQDYNYPWTFGQGTKLEIKR
# B2: CLDQ1-CA841-IgG1 (antibody, V domains shown)
# VH: QVQLVQSGAEVKKPGSSVKVSCKASGGTFSSYAISWVRQAPGQGLEWMGRIIPILGIANYAQKFQGRVTVTADKSTSTAYMELSSLRSEDTAVYYCARERDNWDPYYYYYGMDVWGQGTTVTVSS
# VL: DIQMTQSPSTLSASVGDRVTITCRASQSINSWLAWYQQKPGKAPKLLIYKASSLESGVPSRFSGSGSGTEFTLTISSLQPDDFATYYCQQYNSFPLTFGGGTKVEIKR
# Columns and labels:
# [1] = molecular target: Claudin18.2 on cells (human) (UniProt P56856); assay: cell-based or functional assay
# [2] = molecular target: Claudin18.1 on cells (human) (UniProt P56856); assay: flow cytometry on 293T-Claudin18.1 cells, antibody at 1.5 µg/mL
# [3] = molecular target: Claudin18.2 on cells (human) (UniProt P56856); assay: flow cytometry on 293T-Claudin18.2 cells, antibody at 3 µg/mL
# [4] = molecular target: Claudin18.1 on cells (human) (UniProt P56856); assay: flow cytometry on 293T-Claudin18.1 cells, antibody at 0.375 µg/mL
# [5] = molecular target: Claudin18.2 protein (Genscript Biotech) (UniProt P56856); assay: ELISA, plate coated with Claudin18.2 antigen at 0.2 µg/mL, antibody at 1 µg/mL
# [6] = molecular target: Claudin18.2 on cells (human) (UniProt P56856); assay: flow cytometry on NUGC4 cells, antibody at 3 µg/mL
# [7] = molecular target: Claudin18.1 on cells (human) (UniProt P56856); assay: flow cytometry on 293T-Claudin18.1 cells, antibody at 0.75 µg/mL
# [8] = molecular target: Claudin18.2 protein (Genscript Biotech) (UniProt P56856); assay: ELISA, plate coated with Claudin18.2 antigen at 0.0125 µg/mL, antibody at 1 µg/mL
# [9] = molecular target: Claudin18.2 on cells (human) (UniProt P56856); assay: flow cytometry on NUGC4 cells, antibody at 1.5 µg/mL
# [10] = molecular target: Claudin18.2 on cells (human) (UniProt P56856); assay: flow cytometry on 293T-Claudin18.2 cells, antibody at 0.75 µg/mL
# [11] = molecular target: Claudin18.2 on cells (human) (UniProt P56856); assay: flow cytometry on 293T-Claudin18.2 cells, antibody at 0.375 µg/mL
# [12] = molecular target: Claudin18.2 on cells (human) (UniProt P56856); assay: flow cytometry on 293T-Claudin18.2 cells, antibody at 1.5 µg/mL
# [13] = molecular target: Claudin18.1 on cells (human) (UniProt P56856); assay: flow cytometry on 293T-Claudin18.1 cells, antibody at 3 µg/mL
# [14] = molecular target: Claudin18.2 on cells (human) (UniProt P56856); assay: flow cytometry on NUGC4 cells, antibody at 0.75 µg/mL
# [15] = molecular target: Claudin18.2 protein (Genscript Biotech) (UniProt P56856); assay: ELISA, plate coated with Claudin18.2 antigen at 0.05 µg/mL, antibody at 1 µg/mL
Binder,"ADCC inhibition rate, %, antibody 0.5 µg/mL, 293T-Claudin18.2 target cells, PBMC effectors, LDH [1] [%]","ADCC inhibition rate, %, antibody 5 µg/mL, 293T-Claudin18.2 target cells, PBMC effectors, LDH [1] [%]","ADCC inhibition rate, %, antibody 50 µg/mL, 293T-Claudin18.2 target cells, PBMC effectors, LDH [1] [%]",mean fluorescence intensity [2],mean fluorescence intensity [3],mean fluorescence intensity [4],OD450 [5],mean fluorescence intensity [6],mean fluorescence intensity [7],OD450 [8],mean fluorescence intensity [9],mean fluorescence intensity [10],mean fluorescence intensity [11],mean fluorescence intensity [12],mean fluorescence intensity [13],mean fluorescence intensity [14],OD450 [15]
B1,15,25,45,17900,33300,7960,3.19,42600,15200,0.492,20400,17300,9360,34200,34400,15000,1.28
B2,–,–,–,–,–,–,2.38,–,–,0.165,–,–,–,–,–,–,0.484
